Source: patent US20100189695A1, “IRAK-1 AS REGULATOR OF DISEASES AND DISORDERS” (priority 2008, published 2010)

Key:
NFAT [1] = assay: NFAT responsive element luciferase reporter assay in transfected Hela cells; type: cell-based, human; settings: for suppression of NFAT reporter activity: co-transfection of expression plasmid with NFAT reporter
Excerpt: NFAT family transcription factors play critical roles in the pathogenesis of cardiovascular diseases, including hypertension and atherosclerosis. […] First, human Hela cells were trasfected with either empty vector plasmid or wild type IRAK-1 expression plasmid together with a NFAT responsive element-containing luciferase reporter plasmid. […] Subsequently, plasmids that express mutated IRAK-1 molecules (D340N, C203S, T113I, mutations which are present in human patients with cardiovascular diseases) have been generated.
Further experiments were performed to ask whether the C-terminal domain of IRAK-1 is involved in facilitating its suppressive regulatory function toward NFAT activity. […] Statistical significance was calculated using a t-Test for two-samples assuming unequal variances and p-values are as indicated.
In order to determine the mechanism for IRAK-1 involvement, transcription factor reporter assays were performed. In this set of experiments, NFAT reporter activity was determined in the presence of IRAK-1 or IRAK-M, a homologue of IRAK-1 (FIG. 10).

NFAT [2] = assay: Co-immunoprecipitation of Flag-IRAK-1 constructs with NFAT in transfected Hela cells; type: binding, human; settings: anti-Flag IP, anti-NFAT Western blot
Experimental: To further delineate which part of IRAK-1 is involved in its interaction with NFAT, experiments were performed using full-length IRAK-1 and a C-terminally truncated form (IRAK-1ΔC—see FIG. 1). Specifically, Hela cells were transfected with IRAK-1 encoding plasmids that express either the full length wild type human IRAK-1 protein or a truncated version of IRAK-1 with deletion of the C terminal region (amino acids 548 to 712 are deleted). Equal amount of cell lysates were harvested from the transfected cells and used to perform co-immunoprecipitation assays with an anti-Flag antibody. Immunoprecipitated proteins were resolved by electrophoresis, and the co-immunoprecipitated proteins were subjected to Western blot analyses using an anti-NFAT antibody.

Molecule | suppression of NFAT reporter activity (NFAT [1]) | reduction of NFAT reporter luciferase activity compared with the control transfection (NFAT [1]; co-transfection with NFAT-luciferase reporter plasmid, Hela cells, control adjusted to 100%) | co-immunoprecipitation with NFAT (NFAT [2])
IRAK-1b: isoform of IRAK-1 that does not possess kinase activity (protein) MAGGPGPGEPAAPGAQHFLYEVPPWVMCRFYKVMDALEPADWCQFAALIVRDQTELRLCERSGQRTASVLWPWINRNARVADLVHILTHLQLLRARDIITAWHPPAPLPSPGTTAPRPSSIPAPAEAEAWSPRKLPSSASTFLSPAFPGSQTHSGPELGLVPSPASLWPPPPSPAPSSTKPGPESSVSLLQGARPFPFCWPLCEISRGTHNFSEELKIGEGGFGCVYRAVMRNTVYAVKRLKENADLEWTAVKQSFLTEVEQLSRFRHPNIVDFAGYCAQNGFYCLVYGFLPNGSLEDRLHCQTQACPPLSWPQRLDILLGTARAIQFLHQDSPSLIHGDIKSSNVLLDERLTPKLGDFGLARFSRFAGSSPSQSSMVARTQTVRGTLAYLPEEYIKTGRLAVDTDTFSFGVVVLETLAGQRAVKTHGARTKYLKDLVEEEAEEAGVALRSTQSTLQAGLAADAWAAPIAMQIYKKHLDPRPGPCPPELGLGLGQLACCCLHRRAKRRPPMTQENSYVSSTGRAHSGAAPWQPLAAPSGASAQAAEQLQRGPNQPVESDESLGGLSAALRSWHLTPSCPLDPAPLREAGCPQGDTAGESSWGSGPGSRPTAVEGLALGSSASSSSEPPQIIINPARQKMVQKLALYEDGALDSLQLLSSSSLPGLGLEQDRQGPEESDEFQS | cannot fulfill the inhibitory function on NFAT |  | 
IRAK-M: a homologue of IRAK-1 (protein) MAGNCGARGALSAHTLLFDLPPALLGELCAVLDSCDGALGWRGLAERLSSSWLDVRHIEKYVDQGKSGTRELLWSWAQKNKTIGDLLQVLQEMGHRRAIHLITNYGAVLSPSEKSYQEGGFPNILFKETANVTVDNVLIPEHNEKGILLKSSISFQNIIEGTRNFHKDFLIGEGEIFEVYRVEIQNLTYAVKLFKQEKKMQCKKHWKRFLSELEVLLLFHHPNILELAAYFTETEKFCLIYPYMRNGTLFDRLQCVGDTAPLPWHIRIGILIGISKAIHYLHNVQPCSVICGSISSANILLDDQFQPKLTDFAMAHFRSHLEHQSCTINMTSSSSKHLWYMPEEYIRQGKLSIKTDVYSFGIVIMEVLTGCRVVLDDPKHIQLRDLLRELMEKRGLDSCLSFLDKKVPPCPRNFSAKLFCLAGRCAATRAKLRPSMDEVLNTLESTQASLYFAEDPPTSLKSFRCPSPLFLENVPSIPVEDDESQNNNLLPSDEGLRIDRMTQKTPFECSQSEVMFLSLDKKPESKRNEEACNMPSSSCEESWFPKYIVPSQDLRPYKVNIDPSSEAPGHSCRSRPVESSCSSKFSWDEYEQYKKE | did not show suppression of NFAT |  | 
D340N: mutated IRAK-1 molecule, mutation present in human patients with cardiovascular diseases (protein, UniProt P51617 1-712, looked up, variant D340N) Interleukin-1 …: MAGGPGPGEPAAPGAQHFLYEVPPWVMCRFYKVMDALEPADWCQFAALIVRDQTELRLCERSGQRTASVLWPWINRNARVADLVHILTHLQLLRARDIITAWHPPAPLPSPGTTAPRPSSIPAPAEAEAWSPRKLPSSASTFLSPAFPGSQTHSGPELGLVPSPASLWPPPPSPAPSSTKPGPESSVSLLQGARPFPFCWPLCEISRGTHNFSEELKIGEGGFGCVYRAVMRNTVYAVKRLKENADLEWTAVKQSFLTEVEQLSRFRHPNIVDFAGYCAQNGFYCLVYGFLPNGSLEDRLHCQTQACPPLSWPQRLDILLGTARAIQFLHQDSPSLIHGNIKSSNVLLDERLTPKLGDFGLARFSRFAGSSPSQSSMVARTQTVRGTLAYLPEEYIKTGRLAVDTDTFSFGVVVLETLAGQRAVKTHGARTKYLKDLVEEEAEEAGVALRSTQSTLQAGLAADAWAAPIAMQIYKKHLDPRPGPCPPELGLGLGQLACCCLHRRAKRRPPMTQVYERLEKLQAVVAGVPGHSEAASCIPPSPQENSYVSSTGRAHSGAAPWQPLAAPSGASAQAAEQLQRGPNQPVESDESLGGLSAALRSWHLTPSCPLDPAPLREAGCPQGDTAGESSWGSGPGSRPTAVEGLALGSSASSSSEPPQIIINPARQKMVQKLALYEDGALDSLQLLSSSSLPGLGLEQDRQGPEESDEFQS | failed to suppress NFAT activity |  | 
C203S: mutated IRAK-1 molecule, mutation present in human patients with cardiovascular diseases (protein, UniProt P51617 1-712, looked up, variant C203S) Interleukin-1 …: MAGGPGPGEPAAPGAQHFLYEVPPWVMCRFYKVMDALEPADWCQFAALIVRDQTELRLCERSGQRTASVLWPWINRNARVADLVHILTHLQLLRARDIITAWHPPAPLPSPGTTAPRPSSIPAPAEAEAWSPRKLPSSASTFLSPAFPGSQTHSGPELGLVPSPASLWPPPPSPAPSSTKPGPESSVSLLQGARPFPFCWPLSEISRGTHNFSEELKIGEGGFGCVYRAVMRNTVYAVKRLKENADLEWTAVKQSFLTEVEQLSRFRHPNIVDFAGYCAQNGFYCLVYGFLPNGSLEDRLHCQTQACPPLSWPQRLDILLGTARAIQFLHQDSPSLIHGDIKSSNVLLDERLTPKLGDFGLARFSRFAGSSPSQSSMVARTQTVRGTLAYLPEEYIKTGRLAVDTDTFSFGVVVLETLAGQRAVKTHGARTKYLKDLVEEEAEEAGVALRSTQSTLQAGLAADAWAAPIAMQIYKKHLDPRPGPCPPELGLGLGQLACCCLHRRAKRRPPMTQVYERLEKLQAVVAGVPGHSEAASCIPPSPQENSYVSSTGRAHSGAAPWQPLAAPSGASAQAAEQLQRGPNQPVESDESLGGLSAALRSWHLTPSCPLDPAPLREAGCPQGDTAGESSWGSGPGSRPTAVEGLALGSSASSSSEPPQIIINPARQKMVQKLALYEDGALDSLQLLSSSSLPGLGLEQDRQGPEESDEFQS | failed to suppress NFAT activity |  | 
T113I: mutated IRAK-1 molecule, mutation present in human patients with cardiovascular diseases (protein, UniProt P51617 1-712, looked up, variant T113I) Interleukin-1 …: MAGGPGPGEPAAPGAQHFLYEVPPWVMCRFYKVMDALEPADWCQFAALIVRDQTELRLCERSGQRTASVLWPWINRNARVADLVHILTHLQLLRARDIITAWHPPAPLPSPGITAPRPSSIPAPAEAEAWSPRKLPSSASTFLSPAFPGSQTHSGPELGLVPSPASLWPPPPSPAPSSTKPGPESSVSLLQGARPFPFCWPLCEISRGTHNFSEELKIGEGGFGCVYRAVMRNTVYAVKRLKENADLEWTAVKQSFLTEVEQLSRFRHPNIVDFAGYCAQNGFYCLVYGFLPNGSLEDRLHCQTQACPPLSWPQRLDILLGTARAIQFLHQDSPSLIHGDIKSSNVLLDERLTPKLGDFGLARFSRFAGSSPSQSSMVARTQTVRGTLAYLPEEYIKTGRLAVDTDTFSFGVVVLETLAGQRAVKTHGARTKYLKDLVEEEAEEAGVALRSTQSTLQAGLAADAWAAPIAMQIYKKHLDPRPGPCPPELGLGLGQLACCCLHRRAKRRPPMTQVYERLEKLQAVVAGVPGHSEAASCIPPSPQENSYVSSTGRAHSGAAPWQPLAAPSGASAQAAEQLQRGPNQPVESDESLGGLSAALRSWHLTPSCPLDPAPLREAGCPQGDTAGESSWGSGPGSRPTAVEGLALGSSASSSSEPPQIIINPARQKMVQKLALYEDGALDSLQLLSSSSLPGLGLEQDRQGPEESDEFQS | failed to suppress NFAT activity |  | 
Interleukin-1 Receptor Associated Kinase-1 (protein) MAGGPGPGEPVVPGAQHFLYEVPPWVMCRFYKVMDALEPADWCQFAALIVRDQTELRLCERSEQRTASVLWPWINRNARVADLVHILTHLQLLRARDIITAWHPPAPVVPPSTAAPRPSSISAGSEAGDWSPRKLQSSASTFLSPAFPGSQTHSESELLQVPLPVSLGPPLPSSAPSSTKSSPESPVSGLQRAHPSPFCWPFCEISQGTCNFSEELRIGEGGFGCVYRAVMRNTTYAVKRLKEEADLEWTMVKQSFLTEVEQLSRFRHPNIVDFAGYCAESGLYCLVYGFLPNGSLEDQLHLQTQACSPLSWPQRLDILLGTARAIQFLHQDSPSLIHGDIKSSNVLLDERLMPKLGDFGLARFSRFAGAKASQSSTVARTSTVRGTLAYLPEEYIKTGRLAVDTDTFSFGVVILETLAGQRAVRTQGAKTKYLKDLIEDEAEEAGVTLKSTQPTLWVGVATDAWAAPIAAQIYKKHLDSRPGPCPPQLGLALAQLACCCMHRRAKKRPPMTQVYKRLEGLQAGPPWELEVAGHGSPSPQENSYMSTTGSAQSGDEPWQPLVVTTRAPAQAAQQLQRSPNQPVESDESVPGLSATLHSWHLTPGSHPSPASFREASCTQGGTTRESSVRSSPGFQPTTMEGSPTGSSSLLSSEPPQIIINPARQKMVQKLALYEEGVLDSLQLLSSGFFPGLDLEPEKSQGPEESDEFQS | suppression of NFAT by IRAK-1 could be seen | −80% | capable of co-immunoprecipitating with NFAT
IRAK-1-ΔC: truncated version of IRAK-1 with deletion of the C terminal region (amino acids 548 to 712 are deleted) (protein, UniProt P51617 1-547, looked up, fragment) MAGGPGPGEPAAPGAQHFLYEVPPWVMCRFYKVMDALEPADWCQFAALIVRDQTELRLCERSGQRTASVLWPWINRNARVADLVHILTHLQLLRARDIITAWHPPAPLPSPGTTAPRPSSIPAPAEAEAWSPRKLPSSASTFLSPAFPGSQTHSGPELGLVPSPASLWPPPPSPAPSSTKPGPESSVSLLQGARPFPFCWPLCEISRGTHNFSEELKIGEGGFGCVYRAVMRNTVYAVKRLKENADLEWTAVKQSFLTEVEQLSRFRHPNIVDFAGYCAQNGFYCLVYGFLPNGSLEDRLHCQTQACPPLSWPQRLDILLGTARAIQFLHQDSPSLIHGDIKSSNVLLDERLTPKLGDFGLARFSRFAGSSPSQSSMVARTQTVRGTLAYLPEEYIKTGRLAVDTDTFSFGVVVLETLAGQRAVKTHGARTKYLKDLVEEEAEEAGVALRSTQSTLQAGLAADAWAAPIAMQIYKKHLDPRPGPCPPELGLGLGQLACCCLHRRAKRRPPMTQVYERLEKLQAVVAGVPGHSEAASCIPPSPQENSY | failed to suppress NFAT activity |  | 
